Assay results from patent US20160194394A1 (GOVERNING COUNCIL OF THE UNIVERSITY OF TORONTO, published 2016).

How the values were obtained:
[1] = target: T1, recombinant Frizzled receptor 7 (FZD7) cysteine-rich domain (CRD) fused to the Fc region of human IgG (human, UniProt O75084 33-185); test: ELISA, 1ug/ml (20nM) Fab
Procedure: (§1) FIG. 2B is a table depicting the binding of purified Fabs to purified FZD7-Fc measured by ELISA. Fabs purified from 25 ml bacterial cultures were assayed for binding to FZD7-Fc fusion protein (R&D systems) and Fc protein. ELISA plates (384 well) were coated with 2 ug/ml of protein in PBS overnight at four degrees. Wells were blocked with 0.5% BSA/PBS for 1 hour at room temperature, washed three times with 0.05% Tween20/PBS (wash buffer), and then primary dilutions of Fabs in 0.5% BSA/0.05% Tween20/PBS (dilution buffer) were added at indicated concentrations. Fabs were incubated for 1 hour at room temperature, wells were washed six times, and anti-FLAG-HRP (Sigma) was added at 1:5000 in dilution buffer. Secondary antibody was incubated for 45 minutes at room temperature, and wells were washed six times and developed with TMB substrate with an acid stop. The absorbance at 450 nm was read. n.t.=not tested.

[2] = target: T2, Fc control protein; test: ELISA, 1ug/ml (20nM) Fab
T2 construct: also called Fc protein; control Fc protein
Procedure: as §1

[3] = target: T1, recombinant Frizzled receptor 7 (FZD7) …; test: ELISA, 10ug/ml (200nM) Fab
Procedure: as §1

[4] = target: T2, Fc control protein; test: ELISA, 10ug/ml (200nM) Fab
Procedure: as §1

[5] = target: T3, FZD7 receptor expressed on cells (full-length) (UniProt O75084 33-574, limits assumed); test: flow cytometry, 200 nM Fab, MDA MB 231
T3 construct: whole, on cells; MDA MB 231 cells may carry other Frizzled receptors too; also called full-length FZD7 receptor; endogenous receptor on MDA MB 231 cells
Procedure: (§2) FIG. 3 is a table depicting the binding of the purified Fabs to cells expressing FZD7 (flow cytometry). Small scale Fabs were assayed for binding to full-length FZD7 receptor to an over-expression line in MDA MB 231 cells. In parallel, Fabs were assayed for binding to endogenous receptor expressed on the MDA MB 231 cells. Cells were harvested using an EDTA solution, blocked in 2% FBS/PBS (stain buffer), and stained with 200 nM Fab for 30 min on ice. Cells were washed two times with stain buffer and incubated with anti-F(ab′)₂-APC secondary antibody (Jackson Immuno) at 1:1000 for 15 minutes on ice. All antibodies were diluted in stain buffer. Cells were washed three times with stain buffer and then fixed with 1% paraformaldehye for analysis by flow cytometry. […] The percent of the cell population within the positive gates is indicated.

[6] = target: T3, FZD7 receptor expressed on cells …; test: flow cytometry, 200 nM Fab, FZD7 over-expression line (MDA MB 231)
Procedure: as §2

[7] = target: T2, Fc control protein; test: ELISA, 1ug/ml (20nM) Fab [cont'd]
Procedure: as §1

[8] = target: T2, Fc control protein; test: ELISA, 10ug/ml (200nM) Fab [cont'd]
Procedure: as §1

[9] = target: T3, FZD7 receptor expressed on cells …; test: flow cytometry, 200 nM Fab, MDA MB 231 [cont'd]
Procedure: as §2

[10] = target: T3, FZD7 receptor expressed on cells …; test: flow cytometry, 200 nM Fab, FZD7 over-expression line (MDA MB 231) [cont'd]
Procedure: as §2

Row | Binder | OD 450 [1] | OD 450 [2] | OD 450 [3] | OD 450 [4] | % population within the positive gate [5] | % population within the positive gate [6] | OD 450 [7] | OD 450 [8] | % population within the positive gate [9] | % population within the positive gate [10]
1 | C8 (Fab, selection round 2; also called Fzd7-R2-C8) light: DIQMTQSPSSLSASVGDRVTITCRASQSVSSAVAWYQQKPGKAPKLLIYSASSLYSGVPSRFSGSRSGTDFTLTISSLQPEDFATYYCQQYSPSSFLITFGQGTKVEIKRTVAAPSVFIFPPSDSQLKSGTASVVCLLNNFYPREAKVQWKVDNALQSGNSQESVTEQDSKDSTYSLSSTLTLSKADYEKHKVYACEVTHQGLSSPVTKSFNRGECGGS heavy: EVQLVESGGGLVQPGGSLRLSCAASGFNIYYSYIHWVRQAPGKGLEWVASISSSSGYTSYADSVKGRFTISADTSKNTAYLQMNSLRAEDTAVYYCARSYGYYYYFYYYGGMDYWGQGTLVTVSSASTKGPSVFPLAPSSKSTSGGTAALGCLVKDYFPEPVTVSWNSGALTSGVHTFPAVLQSSGLYSLSSVVTVPSSSLGTQTYICNVNHKPSNTKVDKKVEPKSC | 0.55 | 0.05 | 1.36 | 0.09 | 2.7% | 83.5% | – | – | – | –
2 | D2 (Fab, selection round 2; also called Fzd7-R2-D2) light: DIQMTQSPSSLSASVGDRVTITCRASQSVSSAVAWYQQKPGKAPKLLIYSASSLYSGVPSRFSGSRSGTDFTLTISSLQPEDFATYYCQQSYSGWGPFTFGQGTKVEIKRTVAAPSVFIFPPSDSQLKSGTASVVCLLNNFYPREAKVQWKVDNALQSGNSQESVTEQDSKDSTYSLSSTLTLSKADYEKHKVYACEVTHQGLSSPVTKSFNRGECGGS heavy: EVQLVESGGGLVQPGGSLRLSCAASGFNISSSYIHWVRQAPGKGLEWVASISSSSSYTYYADSVKGRFTISADTSKNTAYLQMNSLRAEDTAVYYCARSAYPFSWSYPSYVGYYSGLDYWGQGTLVTVSSASTKGPSVFPLAPSSKSTSGGTAALGCLVKDYFPEPVTVSWNSGALTSGVHTFPAVLQSSGLYSLSSVVTVPSSSLGTQTYICNVNHKPSNTKVDKKVEPKSC | 0.5 | 0.06 | 1.6 | 0.05 | 0.8% | 75.2% | – | – | – | –
3 | C11 (Fab, selection round 2; also called Fzd7-R2-C11) light: DIQMTQSPSSLSASVGDRVTITCRASQSVSSAVAWYQQKPGKAPKLLIYSASSLYSGVPSRFSGSRSGTDFTLTISSLQPEDFATYYCQQGHYYPYYLFTFGQGTKVEIKRTVAAPSVFIFPPSDSQLKSGTASVVCLLNNFYPREAKVQWKVDNALQSGNSQESVTEQDSKDSTYSLSSTLTLSKADYEKHKVYACEVTHQGLSSPVTKSFNRGECGGS heavy: EVQLVESGGGLVQPGGSLRLSCAASGFNIYYSYMHWVRQAPGKGLEWVASIYSYSGYTYYADSVKGRFTISADTSKNTAYLQMNSLRAEDTAVYYCARSVWGYPYGMDYWGQGTLVTVSSASTKGPSVFPLAPSSKSTSGGTAALGCLVKDYFPEPVTVSWNSGALTSGVHTFPAVLQSSGLYSLSSVVTVPSSSLGTQTYICNVNHKPSNTKVDKKVEPKSC | 0.24 | 0.07 | 1.09 | 0.06 | 1% | 42% | – | – | – | –
4 | D6 (Fab, selection round 2; also called Fzd7-R2-D6) light: DIQMTQSPSSLSASVGDRVTITCRASQSVSSAVAWYQQKPGKAPKLLIYSASSLYSGVPSRFSGSRSGTDFTLTISSLQPEDFATYYCQQFYYSLITFGQGTKVEIKRTVAAPSVFIFPPSDSQLKSGTASVVCLLNNFYPREAKVQWKVDNALQSGNSQESVTEQDSKDSTYSLSSTLTLSKADYEKHKVYACEVTHQGLSSPVTKSFNRGECGGS heavy: EVQLVESGGGLVQPGGSLRLSCAASGFNISYSSMHWVRQAPGKGLEWVASIYSSYSYTSYADSVKGRFTISADTSKNTAYLQMNSLRAEDTAVYYCARSYGPWAPGWAAYWGGYGMDYWGQGTLVTVSSASTKGPSVFPLAPSSKSTSGGTAALGCLVKDYFPEPVTVSWNSGALTSGVHTFPAVLQSSGLYSLSSVVTVPSSSLGTQTYICNVNHKPSNTKVDKKVEPKSC | 2.98 | 0.06 | 3.09 | 0.12 | 35.3% | 84.3% | – | – | – | –

Results, then the binder that gave them:

Row | OD 450 [1] | OD 450 [2] | OD 450 [3] | OD 450 [4] | % population within the positive gate [5] | % population within the positive gate [6] | OD 450 [7] | OD 450 [8] | % population within the positive gate [9] | % population within the positive gate [10] | Binder
5 | 0.24 | 0.05 | 1.16 | 0.05 | 2.8% | 80.9% | – | – | – | – | B8 (Fab, selection round 2; also called Fzd7-R2-B8) light: DIQMTQSPSSLSASVGDRVTITCRASQSVSSAVAWYQQKPGKAPKLLIYSASSLYSGVPSRFSGSRSGTDFTLTISSLQPEDFATYYCQQSSYSLITFGQGTKVEIKRTVAAPSVFIFPPSDSQLKSGTASVVCLLNNFYPREAKVQWKVDNALQSGNSQESVTEQDSKDSTYSLSSTLTLSKADYEKHKVYACEVTHQGLSSPVTKSFNRGECGGS heavy: EVQLVESGGGLVQPGGSLRLSCAASGFNISSYYIHWVRQAPGKGLEWVASISSSYGYTYYADSVKGRFTISADTSKNTAYLQMNSLRAEDTAVYYCARPWSHYSSGAYWHPWSGHALDYWGQGTLVTVSSASTKGPSVFPLAPSSKSTSGGTAALGCLVKDYFPEPVTVSWNSGALTSGVHTFPAVLQSSGLYSLSSVVTVPSSSLGTQTYICNVNHKPSNTKVDKKVEPKSC
6 | 2.65 | 0.06 | 3.21 | 0.17 | 3.9% | 88.1% | – | – | – | – | D5 (Fab, selection round 2; also called Fzd7-R2-D5) light: DIQMTQSPSSLSASVGDRVTITCRASQSVSSAVAWYQQKPGKAPKLLIYSASSLYSGVPSRFSGSRSGTDFTLTISSLQPEDFATYYCQQAYYLITFGQGTKVEIKRTVAAPSVFIFPPSDSQLKSGTASVVCLLNNFYPREAKVQWKVDNALQSGNSQESVTEQDSKDSTYSLSSTLTLSKADYEKHKVYACEVTHQGLSSPVTKSFNRGECGGS heavy: EVQLVESGGGLVQPGGSLRLSCAASGFNIYYSSIHWVRQAPGKGLEWVASIYPSSGYTYYADSVKGRFTISADTSKNTAYLQMNSLRAEDTAVYYCARWAPHSSSWWSVYGWSAWAFDYWGQGTLVTVSSASTKGPSVFPLAPSSKSTSGGTAALGCLVKDYFPEPVTVSWNSGALTSGVHTFPAVLQSSGLYSLSSVVTVPSSSLGTQTYICNVNHKPSNTKVDKKVEPKSC
7 | 3.18 | 0.05 | 3.23 | 0.06 | – | – | – | – | – | – | H11 (Fab, selection round 2; also called Fzd7-R2-H11) light: DIQMTQSPSSLSASVGDRVTITCRASQSVSSAVAWYQQKPGKAPKLLIYSASSLYSGVPSRFSGSRSGTDFTLTISSLQPEDFATYYCQQYSGPITFGQGTKVEIKRTVAAPSVFIFPPSDSQLKSGTASVVCLLNNFYPREAKVQWKVDNALQSGNSQESVTEQDSKDSTYSLSSTLTLSKADYEKHKVYACEVTHQGLSSPVTKSFNRGECGGS heavy: EVQLVESGGGLVQPGGSLRLSCAASGFNISSSYIHWVRQAPGKGLEWVAYIYPYYSYTYYADSVKGRFTISADTSKNTAYLQMNSLRAEDTAVYYCARSVTYHSSGWVPPWYWGYAFDYWGQGTLVTVSSASTKGPSVFPLAPSSKSTSGGTAALGCLVKDYFPEPVTVSWNSGALTSGVHTFPAVLQSSGLYSLSSVVTVPSSSLGTQTYICNVNHKPSNTKVDKKVEPKSC
8 | – | – | – | – | – | – | 0.05 | 0.06 | 0.9% | 74.6% | B12 (Fab, V domains shown, selection round 2; also called Fzd7-R2-B12) VH: EVQLVESGGGLVQPGGSLRLSCAASGFNLSYSYMHWVRQAPGKGLEWVASISSSYGYTYYADSVKGRFTISADTSKNTAYLQMNSLRAEDTAVYYCARAAGPYWYSYWYSAMDYWGQGTLVTVSS VL: DIQMTQSPSSLSASVGDRVTITCRASQSVSSAVAWYQQKPGKAPKLLIYSASSLYSGVPSRFSGSRSGTDFTLTISSLQPEDFATYYCQQSSYSLITFGQGTKVEIKR
9 | – | – | – | – | – | – | 0.05 | 0.05 | – | – | A10 (Fab, V domains shown, selection round 3; also called Fzd7-R3-A10) VH: EVQLVESGGGLVQPGGSLRLSCAASGFNFSSSSIHWVRQAPGKGLEWVAYIYPYYGYTYYADSVKGRFTISADTSKNTAYLQMNSLRAEDTAVYYCARWVVAGHYGMDYWGQGTLVTVSS VL: DIQMTQSPSSLSASVGDRVTITCRASQSVSSAVAWYQQKPGKAPKLLIYSASSLYSGVPSRFSGSRSGTDFTLTISSLQPEDFATYYCQQSYWPGWPITFGQGTKVEIKR
